# Laboratory results from article PMC10478764.
# Molecular target: Mu8.1 conotoxin from Conus mucronatus (Conus mucronatus)
# Assay: crystal structure
substance,measurement,value
Mu8.1 conotoxin from Conus mucronatus (natural protein),stoichiometry N,2
